Assay results: patent US20230312724A1 (KADMON, published 2023)

T1: human B7-H4 expressed on cells (human, UniProt Q7Z7D3 25-282)
T1 construct: Transfected CHO cells or tumor cell lines that carry hB7-H4; also called cellular hB7-H4
T1 sequence: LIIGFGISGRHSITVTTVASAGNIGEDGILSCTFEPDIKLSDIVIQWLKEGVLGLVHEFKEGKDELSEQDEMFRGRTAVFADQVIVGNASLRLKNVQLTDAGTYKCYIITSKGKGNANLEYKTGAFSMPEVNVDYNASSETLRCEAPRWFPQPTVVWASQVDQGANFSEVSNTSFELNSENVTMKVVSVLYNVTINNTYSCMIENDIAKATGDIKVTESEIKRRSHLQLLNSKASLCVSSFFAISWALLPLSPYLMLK

T2: hB7-H4 (soluble human B7-H4, construct not named) (human, UniProt Q7Z7D3 25-259, limits assumed)
T2 construct: also called soluble hB7-H4
T2 sequence: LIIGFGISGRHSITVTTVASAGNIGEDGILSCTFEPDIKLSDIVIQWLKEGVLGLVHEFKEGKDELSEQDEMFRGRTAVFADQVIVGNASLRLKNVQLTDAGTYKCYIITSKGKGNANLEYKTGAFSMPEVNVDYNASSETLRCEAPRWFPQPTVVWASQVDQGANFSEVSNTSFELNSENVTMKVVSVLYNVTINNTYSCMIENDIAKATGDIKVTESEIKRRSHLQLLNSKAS

T3: mB7-H4 (soluble mouse B7-H4, construct not named) (mouse, UniProt Q7TSP5 25-257, limits assumed)
T3 sequence: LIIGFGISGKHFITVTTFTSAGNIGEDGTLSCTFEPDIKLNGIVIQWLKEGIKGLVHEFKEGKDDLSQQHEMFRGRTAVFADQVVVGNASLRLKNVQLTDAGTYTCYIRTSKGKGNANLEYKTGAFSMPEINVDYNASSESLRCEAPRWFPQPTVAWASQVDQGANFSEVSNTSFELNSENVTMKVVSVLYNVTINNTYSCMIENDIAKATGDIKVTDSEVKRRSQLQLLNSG

T4: mouse B7-H4 expressed on cells (mouse, UniProt Q7TSP5 25-257)
T4 construct: also called cellular mB7-H4; mB7-H4/CT26
T4 sequence: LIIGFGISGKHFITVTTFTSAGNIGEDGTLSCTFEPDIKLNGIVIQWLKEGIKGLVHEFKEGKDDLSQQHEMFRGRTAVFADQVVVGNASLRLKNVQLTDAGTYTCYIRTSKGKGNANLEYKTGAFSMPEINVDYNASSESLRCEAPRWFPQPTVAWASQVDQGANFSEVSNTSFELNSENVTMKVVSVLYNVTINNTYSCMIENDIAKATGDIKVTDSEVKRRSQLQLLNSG

T5: mouse B7-H4-his (mouse, UniProt Q7TSP5 25-257)
T5 construct: also called mB7-H4-his; mB7-H4-His; not shown: his tag
T5 sequence: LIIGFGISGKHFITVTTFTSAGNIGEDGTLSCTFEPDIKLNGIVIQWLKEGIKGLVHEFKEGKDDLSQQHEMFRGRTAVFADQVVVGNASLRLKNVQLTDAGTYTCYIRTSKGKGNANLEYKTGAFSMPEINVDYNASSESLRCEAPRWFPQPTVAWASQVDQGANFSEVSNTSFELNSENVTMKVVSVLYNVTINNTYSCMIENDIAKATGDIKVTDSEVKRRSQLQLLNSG

T6: human B7-H4-his (human, UniProt Q7Z7D3 25-259)
T6 construct: also called hB7-H4-his; hB7-H4 his; not shown: his tag
T6 sequence: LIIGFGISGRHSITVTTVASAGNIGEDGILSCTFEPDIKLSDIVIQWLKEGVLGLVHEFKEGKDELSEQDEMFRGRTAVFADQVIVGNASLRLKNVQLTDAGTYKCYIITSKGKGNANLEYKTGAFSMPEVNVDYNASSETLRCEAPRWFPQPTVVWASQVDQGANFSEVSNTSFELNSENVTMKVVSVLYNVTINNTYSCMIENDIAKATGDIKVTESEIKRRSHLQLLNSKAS


What was measured:
[1] = target: T1, human B7-H4 expressed on cells; assay: flow cytometry, SK-BR-3 cells
In short: (§1)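 Cells at 1×10⁶ cells/ml in ice-cold FACS buffer incubated with serially diluted antibodies or fusion proteins for 1 h at 4 °C. After three washes, secondary antibody (1:200) applied 30 min at 4 °C in the dark; binding read by flow cytometry.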

[2] = target: T7, IgV domain of human B7-H4-Fc (human); assay: ELISA, coated hB7-H4 IgV domain
T7 construct: also called hB7-H4 IgV domain
T7 sequence (chain, as listed by the source): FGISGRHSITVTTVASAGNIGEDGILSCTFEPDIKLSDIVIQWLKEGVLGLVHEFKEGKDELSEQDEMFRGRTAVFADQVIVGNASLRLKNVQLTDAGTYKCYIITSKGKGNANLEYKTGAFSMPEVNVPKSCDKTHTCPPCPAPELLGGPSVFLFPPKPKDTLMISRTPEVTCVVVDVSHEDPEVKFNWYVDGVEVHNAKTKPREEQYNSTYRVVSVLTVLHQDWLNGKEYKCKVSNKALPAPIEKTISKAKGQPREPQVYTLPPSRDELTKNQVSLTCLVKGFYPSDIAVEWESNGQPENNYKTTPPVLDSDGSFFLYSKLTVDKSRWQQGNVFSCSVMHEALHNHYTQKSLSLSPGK

[3] = target: T8, mouse B7-H4-Fc (mouse; human); assay: SPR (Biacore)
T8 construct: also called mB7-H4-Fc; mB7-H4-hFc
T8 sequence (chain, as listed by the source): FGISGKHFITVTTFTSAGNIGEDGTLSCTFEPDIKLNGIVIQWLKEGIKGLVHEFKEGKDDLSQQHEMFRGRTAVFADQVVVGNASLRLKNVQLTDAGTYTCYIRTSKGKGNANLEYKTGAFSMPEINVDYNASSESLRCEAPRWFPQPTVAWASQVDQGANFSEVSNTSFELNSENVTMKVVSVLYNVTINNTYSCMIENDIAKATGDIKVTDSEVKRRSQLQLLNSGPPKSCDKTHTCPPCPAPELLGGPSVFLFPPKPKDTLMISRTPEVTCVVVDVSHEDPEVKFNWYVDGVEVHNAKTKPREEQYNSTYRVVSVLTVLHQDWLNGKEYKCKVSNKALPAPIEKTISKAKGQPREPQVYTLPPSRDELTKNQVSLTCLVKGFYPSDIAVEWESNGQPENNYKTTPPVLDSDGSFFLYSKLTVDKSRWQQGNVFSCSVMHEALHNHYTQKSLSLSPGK

[4] = target: T2, hB7-H4 (soluble human B7-H4, construct …); assay: SPR (Biacore)
In short: (§2)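 Ligands (human B7-H4-Fc, human B7-H4-his, mouse B7-H4-Fc) were amine-coupled to CM5 chips at 50-100 RU. Analyte was injected at 100 nM to 0.1 nM in HBS-EP, pH 7.4, at 25 °C, with 180 s association and 1000 or 1200 s dissociation. Kinetics were fitted to a 1:1 Langmuir model.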

[5] = target: T3, mB7-H4 (soluble mouse B7-H4, construct …); assay: SPR (Biacore)
In short: as §2

[6] = target: T2, hB7-H4 (soluble human B7-H4, construct …); assay: ELISA, hB7-H4
In short: (§3)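 Human or mouse B7-H4-Fc (or his-tagged), about 1-2 μg/ml, was coated overnight at 4° C and blocked with 3% PBS+milk. Serially diluted antibodies bound for 1-1.5 h at RT, detected with HRP-conjugated anti-hFab and TMB, stopped with 1N H₂SO₄. EC50 came from OD450 versus antibody concentration curves.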

[7] = target: T3, mB7-H4 (soluble mouse B7-H4, construct …); assay: ELISA, mB7-H4
In short: as §3

[8] = target: T9, IgC domain of mouse B7-H4-Fc (mouse; human); assay: ELISA, coated mB7-H4 IgC domain
T9 construct: also called mB7-H4 IgC domain
T9 sequence (chain, as listed by the source): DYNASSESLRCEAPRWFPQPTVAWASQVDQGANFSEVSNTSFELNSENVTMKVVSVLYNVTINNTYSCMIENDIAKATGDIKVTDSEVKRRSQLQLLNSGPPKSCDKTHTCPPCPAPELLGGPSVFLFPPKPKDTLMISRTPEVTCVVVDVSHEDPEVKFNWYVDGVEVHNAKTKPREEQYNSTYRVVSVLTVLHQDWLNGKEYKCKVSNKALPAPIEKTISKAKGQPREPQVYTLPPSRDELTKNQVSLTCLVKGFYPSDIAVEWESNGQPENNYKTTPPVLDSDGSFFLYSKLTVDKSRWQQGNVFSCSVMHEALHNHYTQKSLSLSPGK
Experimental: (§4) About 1-2 μg/ml of human or mouse B7-H4-Fc (or his-tagged) was immobilized on ELISA plates (Immuno 2HB, Thermo scientific, cat #3455) at 4° C. overnight. After blocking the plates with 3% PBS+milk, serial diluted antibodies were added to the blocked plates and incubated at RT for 1-1.5 h. After washing the plates with PBS-T (0.05%), horse radish peroxidase (HRP)-conjugated antibody targeting the hFab was added to the plate. Signals were developed by adding 3,3′,5,5′-Tetramethylbenzidine (TMB (followed 1N of H₂SO₄ to stop the reaction. The OD at 450 nm was read by ELISA plate reader (Infinite M1000 from TECAN). GraphPad from Prism was used to plot OD450 vs. antibody concentration curve and to calculate the EC50 values.

[9] = target: T10, IgV domain of mouse B7-H4-Fc (mouse; human); assay: ELISA, coated mB7-H4 IgV domain
T10 construct: also called mB7-H4 IgV domain
T10 sequence (chain, as listed by the source): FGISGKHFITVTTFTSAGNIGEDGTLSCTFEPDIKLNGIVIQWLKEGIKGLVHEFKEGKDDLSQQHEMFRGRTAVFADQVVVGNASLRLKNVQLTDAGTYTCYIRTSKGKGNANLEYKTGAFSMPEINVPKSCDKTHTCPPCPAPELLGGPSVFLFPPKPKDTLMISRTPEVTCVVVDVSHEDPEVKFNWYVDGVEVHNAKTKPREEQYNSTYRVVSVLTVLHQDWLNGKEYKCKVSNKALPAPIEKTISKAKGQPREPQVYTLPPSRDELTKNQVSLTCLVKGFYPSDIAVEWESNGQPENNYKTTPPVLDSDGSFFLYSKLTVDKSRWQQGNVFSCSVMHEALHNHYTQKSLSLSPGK

[10] = target: T11, human B7-H4-Fc (human); assay: SPR (Biacore)
T11 construct: also called hB7-H4-Fc; hB7-H4 Fc
T11 sequence (chain, as listed by the source): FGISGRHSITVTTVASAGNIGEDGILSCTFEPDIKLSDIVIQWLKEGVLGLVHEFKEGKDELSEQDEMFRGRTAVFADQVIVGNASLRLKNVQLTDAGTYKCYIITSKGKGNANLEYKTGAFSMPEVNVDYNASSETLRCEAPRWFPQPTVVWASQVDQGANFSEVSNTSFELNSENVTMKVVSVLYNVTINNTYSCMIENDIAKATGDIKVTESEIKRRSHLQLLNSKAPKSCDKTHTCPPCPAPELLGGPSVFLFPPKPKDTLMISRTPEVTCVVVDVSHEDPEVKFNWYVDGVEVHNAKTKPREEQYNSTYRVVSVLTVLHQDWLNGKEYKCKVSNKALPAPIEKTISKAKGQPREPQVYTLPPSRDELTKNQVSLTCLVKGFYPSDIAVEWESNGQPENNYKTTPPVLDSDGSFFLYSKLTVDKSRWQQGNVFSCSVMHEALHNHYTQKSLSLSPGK

[11] = target: T4, mouse B7-H4 expressed on cells; assay: flow cytometry, mB7-H4/CT26 cells
In short: as §1

[12] = target: T12, IgC domain of human B7-H4-Fc (human); assay: ELISA, coated hB7-H4 IgC domain
T12 construct: also called hB7-H4 IgC domain
T12 sequence (chain, as listed by the source): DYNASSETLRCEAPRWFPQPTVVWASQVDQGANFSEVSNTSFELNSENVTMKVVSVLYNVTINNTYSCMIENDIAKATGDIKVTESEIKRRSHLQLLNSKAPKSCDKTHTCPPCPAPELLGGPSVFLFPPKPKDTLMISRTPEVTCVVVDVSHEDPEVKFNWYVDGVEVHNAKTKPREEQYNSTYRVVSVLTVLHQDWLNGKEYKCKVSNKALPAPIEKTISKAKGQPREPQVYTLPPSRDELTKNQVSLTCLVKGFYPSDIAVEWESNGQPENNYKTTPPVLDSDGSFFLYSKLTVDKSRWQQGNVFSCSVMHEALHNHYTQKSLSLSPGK
Experimental: as §4

[13] = target: T11, human B7-H4-Fc; assay: ELISA, coated hB7-H4-Fc
Experimental: as §4

[14] = target: T10, IgV domain of mouse B7-H4-Fc; assay: ELISA, coated mB7-H4 IgV domain; remark: listed apart in the source
In short: as §3

[15] = target: T7, IgV domain of human B7-H4-Fc; assay: ELISA, coated hB7-H4 IgV domain; remark: listed apart in the source
Experimental: as §4

[16] = target: T8, mouse B7-H4-Fc; assay: ELISA, coated mB7-H4-Fc
In short: as §3

[17] = target: T3, mB7-H4 (soluble mouse B7-H4, construct …); assay: summary of ELISA and flow cytometry
[18] = target: T5, mouse B7-H4-his; assay: SPR (Biacore)
[19] = target: T6, human B7-H4-his; assay: SPR (Biacore)
[20] = target: T4, mouse B7-H4 expressed on cells; assay: flow cytometry, CHO cells expressing mB7-H4

Row | EC50 [1] | EC50 (read off the curve) [2] | Kd [3] | Kd [4] | Kd [5] | EC50 [6] | EC50 [7] | EC50 (read off the curve) [9] | Kd [10] | EC50 [11] | EC50 (read off the curve) [13] | binding result [14] | binding result [15] | binding result [16] | binding result [17] | binding result [18] | Kd [19] | binding result [20] | Binder | binding result [8] | binding result [12]
1 | 4.17 nM | ~0.3 nM | 1.53 nM | 1.05 nM | 13 nM | 0.08 nM | 0.136 nM | ~0.2 nM | 0.926 nM | 6.73 nM |  |  |  |  |  |  |  |  | 39A11/39A11 (antibody, human IgG1, V domains shown) VH: EVQLLESGGGLVQPGGSLRLSCAASGFTFSSYGMHWVRQAPGKGLEWVASISSSSGYIYYADSVKGRFTISRDNSKNTLYLQMNSLRAEDTAVYYCARASSGMDVWGQGTTVTVSS VL: DIQMTQSPSSLSASVGDRVTITCRASQTIRSYLNWYQQKPGKAPKLLIYAASHLQSGVPSRFSGSGSGTDFTLTISSLQPEDFATYYCQQSYTTPYTFGQGTKLEIK | no binding (tested: axis value -8 (labelled log nM)) | no binding (tested: axis value -8 (labelled log nM))
2 |  |  |  |  |  |  |  |  | 2.89 nM |  | ~0.07 nM | no binding (tested: 20 nM) | no binding (tested: 20 nM) | no binding (tested: 20 nM) | no binding | no binding | 4.13 nM | no binding | 4B9/4B9 (antibody, human IgG1, V domains shown) VH: QVQLVQSGAEVKKPGASVKVSCKASGYTFTSYYMHWVRQAPGQGLEWMGWMNPNSGNTGYAQKFQGRVTMTRDTSTSTVYMELSSLRSEDTAVYYCARGQGRYLNYYYMDVWGKGTTVTVSS VL: DIQMTQSPSSLSASVGDRVTITCRVSQGISNYLAWYQQKPGKAPKLLIYDASSLQSGVPSRFSGSGSGTDFTLTISSLQPEDFATYYCQQSYSTPFTFGPGTKVDIK |  | 
